Laboratory results as given in patent US11306331B2, “Processes for the production of hydroxycinnamic acids using polypeptides having tyrosine ammonia lyase activity” (CysBio ApS, priority 2014, dated 2022).

Experiments:
[1] = test system: Saccharomyces cerevisiae CEN.PK102-5B; assay: Specific production of pHCA and CA by S. cerevisiae expressing TAL enzymes; type: cell-based; conditions: 72 h, 30° C., +/- standard deviation
Description: A number of the previously characterized enzymes were characterized when expressed in Saccharomyces cerevisiae. Genes encoding HaXAL1 and FjXAL were synthesized with codon optimization for S. cerevisiae available by GeneArt (Life Technologies), and were named HaXAL1 Sc and FjXALSc. Genes were amplified using the oligonucleotide (refer to specific name) shown in Table 6, and inserted by uracil-excision into the vector pCfB132 together with the PPGK1 promoter amplified by primers PPGK1_fw and PPGK1_rv (Jensen et al., 2014). The finished plasmids were transformed into Saccharomyces cerevisiae CEN.PK102-5B (MAT a ura3-52 his3Δ1 leu2-3/112 MAL2-8c SUC2) using a standard lithium acetate transformation protocol and selected for on synthetic drop-out media plates lacking uracil.
Cells were grown in SC medium without uracil, and diluted into Delft medium or Feed-In-Time (FIT) medium (m2p-labs) supplemented with leucine and histidine. After 72 h of incubation at 30° C. with shaking, samples were taken for the analysis of optical density at 600 nm and for clarification of the supernatant, which was analyzed by HPLC as described in example 1. The specific production was calculated as micromolar (μM) concentration per unit of optical density of the culture at 600 nm and is shown in Table 4.

[2] = test system: E. coli BL21(DE3)pLysS cells; assay: Specific production of pHCA and CA by E. coli expressing TAL/PAL enzymes; type: cell-based, Escherichia coli; conditions: 24 h after supplementation, +/- standard deviation
Experimental: Plasmids carrying the genes were transformed into electrocompetent E. coli BL21(DE3)pLysS cells (Life Technologies) and selected on LBplates containing 50 ug/mL streptomycin. The strains were grown in M9 minimal media containing glucose as a carbon source, and expression was induced by adding 1 mM IPTG at an optical density at 600 nm of 0.6. After three hours of growth at 30° C. the cultures were supplemented with 2 mM tyrosine, phenylalanine or histidine. After further 24 hours, samples were withdrawn for determination of the optical density at 600 nm and for the isolation of the supernatant.
The concentration of pHCA and CA in the supernatant was quantified by high performance (HPLC) and compared to chemical standards. HPLC was done on a Thermo setup using a HS-F5 column and mobile phases: 5 mM ammonium formate pH 4.0 (A) and acetonitrile (B) at 1.5 mL min-1, using a gradient elution starting at 5% B. From 0.5 min after injection to 7 min, the fraction of B increased linearly from 5% to 60%, and between 9.5 min and 9.6 the fraction of B decreased back to 5%, and remaining there until 12m pHCA and CA were quantified by measuring absorbance at 333 nm and 277 nm, respectively. The production was tested without addition of precursors or the addition of either phenylalanine or tyrosine to the growth medium.
The specific production was calculated as micromolar (μM) concentration per unit of optical density of the culture at 600 nm, and standard deviations were calculated based on triplicate experiments. HaXAL1, HaXAL2 and FjXAL are the most specific enzymes and those that reach the highest yields.

Molecule	Specific production of CA ([1]; Delft + Tyr (10 mM)) [μM OD600-1]	Specific production of pHCA ([1]; Delft + Tyr (10 mM)) [μM OD600-1]	Specific production of CA ([1]; Delft medium) [μM OD600-1]	Specific production of pHCA ([1]; Delft medium) [μM OD600-1]	Specific production of CA ([1]; FIT + Tyr (10 mM)) [μM OD600-1]	Specific production of pHCA ([1]; FIT + Tyr (10 mM)) [μM OD600-1]	Specific production of CA ([1]; FIT medium) [μM OD600-1]	Specific production of pHCA ([1]; FIT medium) [μM OD600-1]	Specific production of CA ([2]; M9 + Phe (2 mM)) [μM OD600-1]	Specific production of pHCA ([2]; M9 + Phe (2 mM)) [μM OD600-1]	Specific production of CA ([2]; M9 + Tyr (2 mM)) [μM OD600-1]	Specific production of pHCA ([2]; M9 + Tyr (2 mM)) [μM OD600-1]
RtXAL: previously described aromatic amino acid lyase of Rhodosporidium toruloides/Rhodotorula glutinis, protein GI 129593 (protein, UniProt P11544 1-716, looked up) Phenylalanine/tyrosine …: MAPSLDSISHSFANGVASAKQAVNGASTNLAVAGSHLPTTQVTQVDIVEKMLAAPTDSTLELDGYSLNLGDVVSAARKGRPVRVKDSDEIRSKIDKSVEFLRSQLSMSVYGVTTGFGGSADTRTEDAISLQKALLEHQLCGVLPSSFDSFRLGRGLENSLPLEVVRGAMTIRVNSLTRGHSAVRLVVLEALTNFLNHGITPIVPLRGTISASGDLSPLSYIAAAISGHPDSKVHVVHEGKEKILYAREAMALFNLEPVVLGPKEGLGLVNGTAVSASMATLALHDAHMLSLLSQSLTAMTVEAMVGHAGSFHPFLHDVTRPHPTQIEVAGNIRKLLEGSRFAVHHEEEVKVKDDEGILRQDRYPLRTSPQWLGPLVSDLIHAHAVLTIEAGQSTTDNPLIDVENKTSHHGGNFQAAAVANTMEKTRLGLAQIGKLNFTQLTEMLNAGMNRGLPSCLAAEDPSLSYHCKGLDIAAAAYTSELGHLANPVTTHVQPAEMANQAVNSLALISARRTTESNDVLSLLLATHLYCVLQAIDLRAIEFEFKKQFGPAIVSLIDQHFGSAMTGSNLRDELVEKVNKTLAKRLEQTNSYDLVPRWHDAFSFAAGTVVEVLSSTSLSLAAVNAWKVAAAESAISLTRQVRETFWSAASTSSPALSYLSPRTQILYAFVREELGVKARRGDVFLGKQEVTIGSNVSKIYEAIKSGRINNVLLKMLA	21 ± 1.9	89 ± 13	18 ± 0.9	20 ± 0.8	57 ± 4.1	110 ± 8.8	88 ± 2	67 ± 4.3	180 ± 16	7.2 ± 1.3	5.9 ± 6.1	170 ± 10
HaXAL2: tyrosine ammonia lyase derived from Herpetosiphon aurantiacus, protein GI 159898927, 552 aa (protein, listed as Herpetosiphon aurantiacus) MRHQVTLTGAGLTIEDVVRVARHHQPVGLTDNPEILQRIEDSCAYINDAVKASKPVYGVTTGFGGMADVVISSEEAADLQNNAIWYHKTGAGKLLPLADVRAAMLLRANSHMRGVSGIRLEIIQRMMTFLNANVTPHVREFGSIGASGDLVPLISITGALLGTDPAFRVDFDGENIDCLEALERLNLPRLELLPKEGLAMMNGTSVMTGIASNVLHDARILLGLALNIHGLMIQGLQGTNQSFHPFIHQHKAHTGQVWAADHMLQILEGSALSRDELDGRHEYREGDLIQDRYSLRCLPQFLGPIIDGMAYITHHLRVEINSANDNPLINTEAGASYHGGNFLGQYIGVGMDQLRYYMGLMAKHLDVQIALLVSPQFNNGLSASLVGNTDRKVNMGLKGLQISGNSIMPILGFLGNSLADRFPTHAEQFNQNINSQGFGSANLARQTIETLQQYIAIALIFGVQAVDLRTFKRTGHYNAVETLSPMTAKLYSAMREVVGKPISHERPYIWNDNEQALEQHISAIVSDITNDGIIPQAIQETLDSLRSIILFA	0 ± 0	20 ± 6.3	0 ± 0	22 ± 5.2	0 ± 0	26 ± 11	0 ± 0	30 ± 16	0.4 ± 0.02	20 ± 4.4	0 ± 0	61 ± 9.7
